This test addresses T1, Aβ42 oligomers (Homo sapiens (Human), UniProt P05067 672-713).
T1 construct: also called oligomers of Aβ42 (including dimers, trimers, tetramers, hexamers and 12-mers); oligomeric forms of Aβ42
Put plainly: pyrene excimer fluorescence, excitation 350 nm, scan 360-600 nm.

pyrene = pyrene fluorescent label

T1 sequence (P05067 672-713 limits assumed): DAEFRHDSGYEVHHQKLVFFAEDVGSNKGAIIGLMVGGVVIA

B1: Peptide probe specific for Aβ (SEQ ID NO:36) labeled at each terminus with pyrene (peptide)
peptide: pyrene-KLVFFAEDVGSNKGAIIGLM-pyrene
notes: also called Aβ peptide probe; dipyrene labeled peptide probe
On to B1, for which the binding result was “binds”.

These data come from patent US20130108549A1 (ADLYFE, published 2013).
